Data published in patent US20220363757A1 (SYMPHOGEN A S, published 2022).
Blank lines part the entries; values can stand above or below the binder they belong to.

Tests used:
Assay in all cases: SPR, Fab over captured mutant LAG-3-Fc;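 note: fc fusion variants captured on anti-human IgG Fc sensor, Fab injected with association then dissociation phases, KD obtained from Langmuir one-to-one fit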
[1] = target: T1, human LAG-3 domain 1-2 Fc fusion, point mutation #8 Q51A (human, UniProt P18627 23-266)
T1 construct: not shown: human IgG1 Fc, AA P101-K330
T1 sequence: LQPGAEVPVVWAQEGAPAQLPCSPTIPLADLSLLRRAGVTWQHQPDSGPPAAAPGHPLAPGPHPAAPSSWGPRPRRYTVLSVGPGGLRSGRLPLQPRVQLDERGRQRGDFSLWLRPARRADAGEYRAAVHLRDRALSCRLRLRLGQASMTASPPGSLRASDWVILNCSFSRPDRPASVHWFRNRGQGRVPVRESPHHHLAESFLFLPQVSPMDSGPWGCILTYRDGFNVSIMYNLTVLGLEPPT

[2] = target: T2, human LAG-3 domain 1-2 Fc fusion, point mutation #41 P94A (human, UniProt P18627 23-266)
T2 construct: not shown: human IgG1 Fc, AA P101-K330
T2 sequence: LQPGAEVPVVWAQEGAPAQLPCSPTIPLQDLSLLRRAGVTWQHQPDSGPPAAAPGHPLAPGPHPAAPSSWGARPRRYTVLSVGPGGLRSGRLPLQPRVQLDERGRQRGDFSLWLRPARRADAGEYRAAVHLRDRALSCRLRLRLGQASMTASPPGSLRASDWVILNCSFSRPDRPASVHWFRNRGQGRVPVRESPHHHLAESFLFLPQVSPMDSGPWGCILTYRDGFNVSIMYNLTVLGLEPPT

[3] = target: T3, human LAG-3 domain 1-2 Fc fusion, point mutation #25 H78A (human, UniProt P18627 23-266)
T3 construct: not shown: human IgG1 Fc, AA P101-K330
T3 sequence: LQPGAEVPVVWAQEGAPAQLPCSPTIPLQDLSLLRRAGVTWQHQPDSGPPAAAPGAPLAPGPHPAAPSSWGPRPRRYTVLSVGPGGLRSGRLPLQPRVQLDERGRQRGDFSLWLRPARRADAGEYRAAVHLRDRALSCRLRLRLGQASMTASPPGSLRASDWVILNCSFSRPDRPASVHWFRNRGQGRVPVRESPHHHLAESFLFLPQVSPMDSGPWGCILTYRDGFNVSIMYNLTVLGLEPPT

[4] = target: T4, human LAG-3 domain 1-2 Fc fusion, point mutation #55 S111A (human, UniProt P18627 23-266)
T4 construct: not shown: human IgG1 Fc, AA P101-K330
T4 sequence: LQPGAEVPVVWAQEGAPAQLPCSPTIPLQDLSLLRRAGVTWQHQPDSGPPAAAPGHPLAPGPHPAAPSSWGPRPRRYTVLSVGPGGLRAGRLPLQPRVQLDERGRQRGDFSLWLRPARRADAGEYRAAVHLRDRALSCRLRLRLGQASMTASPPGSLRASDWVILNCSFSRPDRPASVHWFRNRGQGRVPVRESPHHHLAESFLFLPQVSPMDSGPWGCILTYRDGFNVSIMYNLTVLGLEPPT

[5] = target: T5, human LAG-3 domain 1-2 Fc fusion, point mutation #68 Q128A (human, UniProt P18627 23-266)
T5 construct: not shown: human IgG1 Fc, AA P101-K330
T5 sequence: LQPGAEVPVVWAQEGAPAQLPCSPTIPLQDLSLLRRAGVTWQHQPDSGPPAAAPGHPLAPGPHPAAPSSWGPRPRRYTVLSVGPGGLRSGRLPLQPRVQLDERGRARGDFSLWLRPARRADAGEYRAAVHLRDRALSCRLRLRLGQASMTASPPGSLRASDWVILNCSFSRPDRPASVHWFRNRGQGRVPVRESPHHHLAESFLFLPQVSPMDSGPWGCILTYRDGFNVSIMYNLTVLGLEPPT

[6] = target: T6, human LAG-3 domain 1-2 Fc fusion, point mutation #39 W92A (human, UniProt P18627 23-266)
T6 construct: not shown: human IgG1 Fc, AA P101-K330
T6 sequence: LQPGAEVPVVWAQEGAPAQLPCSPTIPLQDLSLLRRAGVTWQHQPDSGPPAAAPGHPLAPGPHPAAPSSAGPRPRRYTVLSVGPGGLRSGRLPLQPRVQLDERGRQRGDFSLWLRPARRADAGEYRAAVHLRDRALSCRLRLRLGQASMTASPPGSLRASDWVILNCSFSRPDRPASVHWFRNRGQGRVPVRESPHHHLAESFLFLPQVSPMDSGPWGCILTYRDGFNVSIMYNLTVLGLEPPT

[7] = target: T7, human LAG-3 domain 1-2 Fc fusion, point mutation #28 A81S (human, UniProt P18627 23-266)
T7 construct: not shown: human IgG1 Fc, AA P101-K330
T7 sequence: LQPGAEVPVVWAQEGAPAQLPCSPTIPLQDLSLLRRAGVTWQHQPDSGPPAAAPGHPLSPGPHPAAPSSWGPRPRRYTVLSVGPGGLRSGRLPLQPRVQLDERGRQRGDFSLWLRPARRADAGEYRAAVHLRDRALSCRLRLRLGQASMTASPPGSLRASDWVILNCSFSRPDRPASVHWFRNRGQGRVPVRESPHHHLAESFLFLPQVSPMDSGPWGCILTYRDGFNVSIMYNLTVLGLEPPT

[8] = target: T8, human LAG-3 domain 1-2 Fc fusion, point mutation #43 P96A (human, UniProt P18627 23-266)
T8 construct: not shown: human IgG1 Fc, AA P101-K330
T8 sequence: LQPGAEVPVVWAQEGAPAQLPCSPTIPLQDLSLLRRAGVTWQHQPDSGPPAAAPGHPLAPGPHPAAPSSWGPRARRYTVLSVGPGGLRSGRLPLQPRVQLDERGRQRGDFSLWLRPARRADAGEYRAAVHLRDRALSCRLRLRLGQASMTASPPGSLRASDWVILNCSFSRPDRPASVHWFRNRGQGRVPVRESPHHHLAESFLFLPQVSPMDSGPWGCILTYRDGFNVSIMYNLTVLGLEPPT

[9] = target: T9, human LAG-3 domain 1-2 Fc fusion, point mutation #64 E124A (human, UniProt P18627 23-266)
T9 construct: not shown: human IgG1 Fc, AA P101-K330
T9 sequence: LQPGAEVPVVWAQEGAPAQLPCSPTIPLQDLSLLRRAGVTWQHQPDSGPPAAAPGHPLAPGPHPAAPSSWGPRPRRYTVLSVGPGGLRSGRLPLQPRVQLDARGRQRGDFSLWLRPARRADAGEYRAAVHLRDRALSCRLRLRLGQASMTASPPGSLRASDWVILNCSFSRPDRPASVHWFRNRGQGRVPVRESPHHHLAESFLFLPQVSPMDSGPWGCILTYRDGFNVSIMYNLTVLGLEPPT

B2: Fab fragment of antibody 15431 (Fab, V domains shown, not shown: a dimerising Fc or GST)
VH: QVQLQQSGPGLVKPSQTLSLTCAISGDSVSSNSAAWNWIRQSPSRGLEWLGRTYYRSKWYNDYAVSVKSRITINPDTSKNQFSLQLNSVTPEDTAVYYCARDDDWNDFDYWGQGTLVTVSS
VL: EIVLTQSPATLSLSPGERATLSCRASQSVSSYLAWYQQKPGQAPRLLIYDASNRATGIPARFSGSGSGTDFTLTISSLEPEDFAVYYCQQRSNWPLTFGGGTKVEIKR
notes: monomeric Fab made by GingisKHAN digestion of the IgG1
KD mutant/KD wild type [1]: 0.7 fold | binding result [2]: no binding (tested: 300 nM) | KD mutant/KD wild type [3]: 0.4 fold | KD mutant/KD wild type [4]: 0.8 fold | KD mutant/KD wild type [5]: 0.8 fold | KD mutant/KD wild type [6]: 3.6 fold | KD mutant/KD wild type [7]: 0.6 fold | binding result [8]: no binding (tested: 300 nM) | binding result [9]: no binding (tested: 300 nM)

B3: Fab fragment of antibody 15011 (Fab, V domains shown, not shown: a dimerising Fc or GST)
VH: EVQLLESGGGLVQPGGSLRLSCAASGFDFRSYAMMWVRQAPGKGLEWVGGINGEVGGSNTYYAPAVKGRATISRDNSKNTLYLQMNSLRAEDTAVYYCVKGAGACGICNDDIDAWGQGTLVTVSS
VL: SYELTQDPAVSVALGQTVRITCSGAGSYAGSYYYGWHQQKPGQAPVTVIYDNDKRPSNIPDRFSGSSSGNTASLTITGAQAEDEADYYCGSTNDNDDGGLFGSGTKVTVLG
notes: as for B2
KD mutant/KD wild type [1]: 0.8 fold | KD mutant/KD wild type [2]: 0.7 fold | KD mutant/KD wild type [3]: 0.7 fold | KD mutant/KD wild type [4]: 53.4 fold | KD mutant/KD wild type [5]: 1 fold | KD mutant/KD wild type [6]: 1.1 fold | KD mutant/KD wild type [7]: 0.8 fold | KD mutant/KD wild type [8]: 0.6 fold | KD mutant/KD wild type [9]: 0.8 fold

Continued, values first:

KD mutant/KD wild type [1]: 0.9 fold | KD mutant/KD wild type [2]: 0.8 fold | KD mutant/KD wild type [3]: 0.9 fold | KD mutant/KD wild type [4]: 1 fold | KD mutant/KD wild type [5]: 0.7 fold | binding result [6]: no binding (tested: 300 nM) | KD mutant/KD wild type [7]: 0.6 fold | KD mutant/KD wild type [8]: 1.4 fold | KD mutant/KD wild type [9]: 1.8 fold
B1: Fab fragment of antibody 15532 (Fab, V domains shown, not shown: a dimerising Fc or GST)
VH: QVQLQQWGAGLLRPSETLSLTCAVYGESFSGYYWNWIRQPPGKGLEWIGEINHSGSTNYNPSLKSRVTISVDTSKTQFSLKLSSVTAADTAVYYCARGWDLLDWNDYWNEYWGQGTLVTVSS
VL: EIVLTQSPATLSLSPGERATLSCRASQSVSSYLAWYQQKPGQAPRLLIYDASNRATGIPARFSGSGSGTDFTLTISSLEPEDFAVYYCQQRSNWPLTFGGGTKVEIKR
notes: as for B2

KD mutant/KD wild type [1]: 0.6 fold | KD mutant/KD wild type [2]: 0.6 fold | KD mutant/KD wild type [3]: 0.5 fold | KD mutant/KD wild type [4]: 0.7 fold | KD mutant/KD wild type [5]: 0.9 fold | KD mutant/KD wild type [6]: 1 fold | KD mutant/KD wild type [7]: 0.6 fold | binding result [8]: no binding (tested: 300 nM) | binding result [9]: no binding (tested: 300 nM)
B4: Fab fragment of antibody 15572 (Fab, V domains shown, not shown: a dimerising Fc or GST)
VH: QLQLQESGPGLVKPSETLSLTCTVSGDSISSSSYYWGWIRQPPGKGLEWIGSIFYSGNTYYNPSLKSRVTISVDTSKNQFSLKLSSVTAADTAVYYCAREDDFLTDYYGAFDIWGQGTMVTVSS
VL: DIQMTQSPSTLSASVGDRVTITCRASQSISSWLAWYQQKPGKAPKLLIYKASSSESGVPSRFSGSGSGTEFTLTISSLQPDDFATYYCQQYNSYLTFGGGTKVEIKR
notes: as for B2
